The source of these data is publication PMC10288592.

By stoichiometry N is commonly meant the number of molecules, sites or subunits per partner or assembly.

In the assay the target is PYCO1(452 to 592) (Phaeodactylum tricornutum). Briefly: cryo-EM structure; single particle cryo-EM of the Rubisco–PYCO1(452 to 592) complex.

PYCO1(452 to 592) (domain or fragment) came in with a stoichiometry N of 4.
